Reference: patent US20060088510A1 (BRIGHAM AND WOMEN S HOSPITAL, published 2006)
No end group written: not given here.

Biological target: T1, Streptavidin (UniProt P22629 37-163, limits assumed)
T1 construct: also called 35S-streptavidin; Radiolabeled Streptavidin (35S-SLR labeled)
Experiment: radioligand binding assay, 35S-streptavidin on 1:100 biotinylated:nonbiotinylated self-assembling peptides (1% w/v)
Source text: We have previously shown that biotinylated peptides can be synthesized and incorporated with self-assembling (Davis, et al., Circ Res 97: 8-15 (2005)). To allow sufficient distance from the peptide to allow streptavidin binding (Livnah, et al., Proc Natl Acad Sci USA 90:5076-5080 (1993); Pugliese, et al., J. Mol Biol 231:698-710 (1993)), the biotin was attached to the peptide by two N-e-Fmoc-e-aminocaproic acids.

T1 sequence (P22629 37-163 limits assumed): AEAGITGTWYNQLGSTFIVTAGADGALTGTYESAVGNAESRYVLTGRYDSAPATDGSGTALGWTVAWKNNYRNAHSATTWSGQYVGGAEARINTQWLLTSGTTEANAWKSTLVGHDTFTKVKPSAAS

B1: Biotinylated RAD16-II peptide (peptide)
peptide: RARADADARARADADA-NH2
modifications: not fully specified (N-terminus); also: biotin linked via 2 aminocaproic acid groups, attachment residue not given here
notes: Synthetic self-assembling peptide; In the assays it was mixed 1:100 with nonbiotinylated RAD16-II (1% final peptide weight/volume) and assembled into fibers; also called biotinylated self-assembling peptides; biotinylated peptides
- Kd: 190 nM
